US7655759 (VRIJE UNIVERSITEIT BRUSSEL, dated 2010)

Target: tetanus toxoid (RIT, Smith Kline Beecham) (Clostridium tetani, UniProt P04958 2-1315)
Test: ELISA by the procedure of Friguet et al.

Chain of tetanus toxoid (RIT, Smith Kline Beecham) (P04958 2-457 limits assumed, chain 1 of 2): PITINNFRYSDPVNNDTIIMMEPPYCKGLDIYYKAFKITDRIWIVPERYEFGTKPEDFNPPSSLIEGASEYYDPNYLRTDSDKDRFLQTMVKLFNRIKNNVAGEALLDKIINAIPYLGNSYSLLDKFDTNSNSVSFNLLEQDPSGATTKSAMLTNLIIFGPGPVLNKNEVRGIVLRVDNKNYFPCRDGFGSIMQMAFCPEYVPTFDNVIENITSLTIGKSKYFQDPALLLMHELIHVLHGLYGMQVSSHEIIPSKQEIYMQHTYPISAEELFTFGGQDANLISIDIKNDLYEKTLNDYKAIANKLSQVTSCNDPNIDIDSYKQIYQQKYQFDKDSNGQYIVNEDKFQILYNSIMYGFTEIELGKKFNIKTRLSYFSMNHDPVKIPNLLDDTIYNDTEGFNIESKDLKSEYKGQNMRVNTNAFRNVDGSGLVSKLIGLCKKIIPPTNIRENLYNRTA
Chain of tetanus toxoid (RIT, Smith Kline Beecham) (P04958 458-1315 limits assumed, chain 2 of 2): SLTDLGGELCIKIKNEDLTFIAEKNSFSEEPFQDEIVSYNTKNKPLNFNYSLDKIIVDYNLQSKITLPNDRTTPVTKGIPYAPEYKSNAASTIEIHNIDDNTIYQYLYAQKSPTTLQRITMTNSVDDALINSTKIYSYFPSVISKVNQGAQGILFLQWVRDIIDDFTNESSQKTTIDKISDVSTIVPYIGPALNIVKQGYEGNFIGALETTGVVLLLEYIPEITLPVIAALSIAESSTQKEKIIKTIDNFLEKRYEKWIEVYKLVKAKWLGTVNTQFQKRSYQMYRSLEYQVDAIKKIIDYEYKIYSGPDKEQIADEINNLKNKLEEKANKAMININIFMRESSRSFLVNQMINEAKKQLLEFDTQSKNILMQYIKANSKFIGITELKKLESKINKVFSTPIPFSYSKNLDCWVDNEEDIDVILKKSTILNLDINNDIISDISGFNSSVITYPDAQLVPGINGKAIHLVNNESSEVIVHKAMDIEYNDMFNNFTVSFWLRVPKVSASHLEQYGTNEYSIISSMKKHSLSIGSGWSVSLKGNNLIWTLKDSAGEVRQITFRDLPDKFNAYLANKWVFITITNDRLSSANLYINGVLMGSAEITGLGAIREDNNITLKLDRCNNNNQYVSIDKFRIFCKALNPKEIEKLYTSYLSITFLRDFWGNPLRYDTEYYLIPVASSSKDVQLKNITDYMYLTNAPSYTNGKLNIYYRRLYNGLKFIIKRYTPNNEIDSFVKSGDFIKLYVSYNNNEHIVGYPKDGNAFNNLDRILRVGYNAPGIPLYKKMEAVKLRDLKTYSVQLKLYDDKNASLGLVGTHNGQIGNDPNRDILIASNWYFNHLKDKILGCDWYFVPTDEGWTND

Binder	Ka [M⁻¹]
camel VHH αTT1 (anti-tetanus toxoid) (VHH) VHH: EVQLQASGGGSVQAGGSLRLSCAASGGQTFDSYAMAWFRQAPGKECELVSSIIGDDNRNYADSVKGRFTISRDNAKNTVYLQMDRLNPEDTAVYYCAQLGSARSAMYCAGQGTQVTVSS	6e+07
camel VHH αTT2 (anti-tetanus toxoid) (VHH) VHH: EVQLQASGGGSVQAGGSLRLSCTAANYAFDSKTVGWFRQVPGKEREGVAGISSGGSTTAYSDSVKGRYTVSLENAKNTVYLLIDNLQPEDTAIYYCAGVSGWRGRQWLLLAETYRFWGQGTQVTVSS	2e+07
